Data reported in patent publication US20210246166A1 (Bayer, published 2021).
Numbered stars: 1 amine (or outer) side, 2 acyl side, 3 side chain; on linkers, the order of the positions; unused ones are H or OH. Bridge positions count the residues as written; N and C are the ends. Square brackets hold non-standard residues; d marks the D form. Ends that are not written are not given here. X3 = (1R,3S)‑3‑(Amino)cyclopentanecarboxylic acid, O=C([C@@H]1CC[C@H](N[*:1])C1)[*:2]; X4 = (1S,3R)‑3‑(Amino)cyclopentanecarboxylic acid, O=C([C@H]1CC[C@@H](N[*:1])C1)[*:2]; X9 = (S)‑3‑(1-Pyrrolidine-2-yl)‑propionic acid, O=C(CC[C@@H]1CCCN1[*:1])[*:2]; X8 = (R)‑4‑Amino‑6‑methylheptanoic acid, CC(C)C[C@@H](CCC(=O)[*:2])N[*:1]; X6 = (S)‑(1-Piperidin-3-yl)‑acetic acid, O=C(C[C@@H]1CCCN([*:1])C1)[*:2]; His(τ-Bzl) = N[C@@H](Cc1cn(Cc2ccccc2)cn1)C(=O)O; Oic = O=C(O)[C@@H]1C[C@@H]2CCCC[C@@H]2N1; βPro(3S) = O=C([C@H]1CCN([*:1])C1)[*:2]; tBuAla = CC(C)(C)C[C@H](N)C(=O)O; Pen = CC(C)(S)[C@H](N)C(=O)O; β3hP = O=C(O)C[C@@H]1CCCN1; NMeC = CN[C@@H](CS)C(=O)O; Nva = CCC[C@H](N)C(=O)O; Sar = CNCC(=O)O

T1: recombinant human MASP1 active protease (amino acids 297-699, C-terminal His Tag) (human, UniProt P48740 297-699)
T1 sequence: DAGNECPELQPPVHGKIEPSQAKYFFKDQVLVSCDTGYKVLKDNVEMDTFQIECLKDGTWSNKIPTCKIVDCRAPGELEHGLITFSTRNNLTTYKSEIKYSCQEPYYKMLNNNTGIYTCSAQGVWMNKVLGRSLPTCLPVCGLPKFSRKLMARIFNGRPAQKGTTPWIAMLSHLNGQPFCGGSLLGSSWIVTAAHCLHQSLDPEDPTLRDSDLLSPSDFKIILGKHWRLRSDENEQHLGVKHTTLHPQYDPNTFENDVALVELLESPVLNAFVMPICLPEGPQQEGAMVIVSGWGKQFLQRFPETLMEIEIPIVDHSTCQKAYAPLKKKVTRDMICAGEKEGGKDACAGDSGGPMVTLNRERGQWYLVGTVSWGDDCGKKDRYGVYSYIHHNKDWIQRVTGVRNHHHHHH

T2: recombinant human MASP1 active protease (amino acids 297-699, C-terminal His Tag) (human, UniProt P48740 297-699)
T2 sequence: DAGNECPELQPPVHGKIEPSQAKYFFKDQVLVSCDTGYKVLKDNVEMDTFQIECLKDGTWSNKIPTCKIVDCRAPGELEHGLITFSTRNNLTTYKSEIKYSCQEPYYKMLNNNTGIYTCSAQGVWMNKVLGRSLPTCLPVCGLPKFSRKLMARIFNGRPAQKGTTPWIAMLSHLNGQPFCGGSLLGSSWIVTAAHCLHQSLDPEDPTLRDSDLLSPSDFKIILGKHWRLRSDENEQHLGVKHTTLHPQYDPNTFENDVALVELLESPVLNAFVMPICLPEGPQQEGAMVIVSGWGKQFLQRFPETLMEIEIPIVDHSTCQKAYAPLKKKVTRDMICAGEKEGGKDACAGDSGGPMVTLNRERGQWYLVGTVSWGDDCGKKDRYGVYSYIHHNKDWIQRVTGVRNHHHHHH


How the values were obtained:
Assay in all cases: cell-based or functional assay
[1] = target: recombinant human MASP2 active protease (amino acids 297-686, C-terminal His Tag) (human, UniProt O00187 297-686)
Target sequence in this assay (O00187 other isoform, or with tags, fused parts or gaps limits assumed): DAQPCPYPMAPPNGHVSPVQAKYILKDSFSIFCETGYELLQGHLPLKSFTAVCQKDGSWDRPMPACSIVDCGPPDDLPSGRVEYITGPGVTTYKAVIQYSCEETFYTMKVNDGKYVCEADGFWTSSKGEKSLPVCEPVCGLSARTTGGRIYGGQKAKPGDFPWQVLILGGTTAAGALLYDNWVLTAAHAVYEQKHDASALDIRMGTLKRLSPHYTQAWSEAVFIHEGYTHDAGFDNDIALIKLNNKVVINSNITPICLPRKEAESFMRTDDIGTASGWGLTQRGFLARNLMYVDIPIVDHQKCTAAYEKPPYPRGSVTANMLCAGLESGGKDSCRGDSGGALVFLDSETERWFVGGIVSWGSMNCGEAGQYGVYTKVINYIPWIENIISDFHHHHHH

[2] = target: T1, recombinant human MASP1 active protease …
[3] = target: T2, recombinant human MASP1 active protease …; remark: listed apart in the source
[4] = target: recombinant human MASP2 active protease (amino acids 297-686, C-terminal His Tag) (human, UniProt O00187 297-686); remark: listed apart in the source
Target sequence in this assay (O00187 other isoform, or with tags, fused parts or gaps limits assumed): as above

Binder | human MASP2 IC50 [1] [nM] | human MASP1 IC50 [2] [nM] | human MASP1 IC50 [3] [nM] | human MASP2 IC50 [4] [nM]
[Sar]ICSRSLP[Oic]I[Pen]IP[X3]-OH (disulfide 3-11; N-terminus assumed; SMILES CC[C@H](C)[C@H](NC(=O)CNC)C(=O)N[C@H]1CSSC(C)(C)[C@@H](C(=O)N[C@H](C(=O)N2CCC[C@H]2C(=O)N[C@H]2CC[C@@H](C(=O)O)C2)[C@@H](C)CC)NC(=O)[C@H]([C@@H](C)CC)NC(=O)[C@@H]2C[C@@H]3CCCC[C@@H]3N2C(=O)[C@@H]2CCCN2C(=O)[C@H](CC(C)C)NC(=O)[C@H](CO)NC(=O)[C@H](CCCNC(=N)N)NC(=O)[C@H](CO)NC1=O) [Example 449: ((N-Me)G)-IC+SRSLP-(Oic)-I-(Pen)+IP-((1R,3S)-3-(Amino)cyclopentanecarboxylic acid)-OH] | 93 | 1.8 |  | 
[Sar]ICSRSLP[Oic]I[Pen]IP[X8]-OH (disulfide 3-11; N-terminus assumed; SMILES CC[C@H](C)[C@H](NC(=O)CNC)C(=O)N[C@H]1CSSC(C)(C)[C@@H](C(=O)N[C@H](C(=O)N2CCC[C@H]2C(=O)N[C@H](CCC(=O)O)CC(C)C)[C@@H](C)CC)NC(=O)[C@H]([C@@H](C)CC)NC(=O)[C@@H]2C[C@@H]3CCCC[C@@H]3N2C(=O)[C@@H]2CCCN2C(=O)[C@H](CC(C)C)NC(=O)[C@H](CO)NC(=O)[C@H](CCCNC(=N)N)NC(=O)[C@H](CO)NC1=O) [Example 450: ((N-Me)G)-IC+SRSLP-(Oic)-I-(Pen)+IP-((R)-4-Amino-6-methylheptanoic acid)-OH] | 230 | 5.8 |  | 
[Sar]ICSRS[tBuAla]PPI[Pen]IP[His(τ-Bzl)]-OH (disulfide 3-11; N-terminus assumed; SMILES CC[C@H](C)[C@H](NC(=O)CNC)C(=O)N[C@H]1CSSC(C)(C)[C@@H](C(=O)N[C@H](C(=O)N2CCC[C@H]2C(=O)N[C@@H](Cc2cn(Cc3ccccc3)cn2)C(=O)O)[C@@H](C)CC)NC(=O)[C@H]([C@@H](C)CC)NC(=O)[C@@H]2CCCN2C(=O)[C@@H]2CCCN2C(=O)[C@H](CC(C)(C)C)NC(=O)[C@H](CO)NC(=O)[C@H](CCCNC(=N)N)NC(=O)[C@H](CO)NC1=O) [Example 447: ((N-Me)G)-IC+SRS-((tBu)A)-PPI-(Pen)+IP-((1-Bn)H)-OH] | 65.5 | 4.7 |  | 
[Sar]ICRRS[tBuAla]PP[Nva][Pen]IP-NH2 (disulfide 3-11; N-terminus assumed; SMILES CCC[C@@H]1NC(=O)[C@@H]2CCCN2C(=O)[C@@H]2CCCN2C(=O)[C@H](CC(C)(C)C)NC(=O)[C@H](CO)NC(=O)[C@H](CCCNC(=N)N)NC(=O)[C@H](CCCNC(=N)N)NC(=O)[C@@H](NC(=O)[C@@H](NC(=O)CNC)[C@@H](C)CC)CSSC(C)(C)[C@@H](C(=O)N[C@H](C(=O)N2CCC[C@H]2C(N)=O)[C@@H](C)CC)NC1=O) [Example 448: ((N-Me)G)-IC+RRS-((tBu)A)-PP-(Nva)-(Pen)+IP-NH2] | 1000 | 440 |  | 
AICSRS[tBuAla]PPI[NMeC]IPD-NH2 (disulfide 3-11; N-terminus assumed; SMILES CC[C@H](C)[C@H](NC(=O)[C@H](C)N)C(=O)N[C@H]1CSSC[C@@H](C(=O)N[C@H](C(=O)N2CCC[C@H]2C(=O)N[C@@H](CC(=O)O)C(N)=O)[C@@H](C)CC)N(C)C(=O)[C@H]([C@@H](C)CC)NC(=O)[C@@H]2CCCN2C(=O)[C@@H]2CCCN2C(=O)[C@H](CC(C)(C)C)NC(=O)[C@H](CO)NC(=O)[C@H](CCCNC(=N)N)NC(=O)[C@H](CO)NC1=O) [AIC+SRS-((tBu)A)-PPI-((N-Me)C)+IPD-NH2] |  |  | 1.95 | 225

Next, values leading:

human MASP2 IC50 [1] [nM] | human MASP1 IC50 [2] [nM] | human MASP1 IC50 [3] [nM] | human MASP2 IC50 [4] [nM] | Binder
100 | 2 |  |  | [Sar]ICSRSLP[Oic]I[Pen]IP[X4]-OH (disulfide 3-11; N-terminus assumed; SMILES CC[C@H](C)[C@H](NC(=O)CNC)C(=O)N[C@H]1CSSC(C)(C)[C@@H](C(=O)N[C@H](C(=O)N2CCC[C@H]2C(=O)N[C@@H]2CC[C@H](C(=O)O)C2)[C@@H](C)CC)NC(=O)[C@H]([C@@H](C)CC)NC(=O)[C@@H]2C[C@@H]3CCCC[C@@H]3N2C(=O)[C@@H]2CCCN2C(=O)[C@H](CC(C)C)NC(=O)[C@H](CO)NC(=O)[C@H](CCCNC(=N)N)NC(=O)[C@H](CO)NC1=O) [Example 452: ((N-Me)G)-IC+SRSLP-(Oic)-I-(Pen)+IP-((1S,3R)-3-(Amino)cyclopentanecarboxylic acid)-OH]
110 | 1.9 |  |  | [Sar]ICSRSLP[Oic]I[Pen]IP[βPro(3S)]-OH (disulfide 3-11; N-terminus assumed; SMILES CC[C@H](C)[C@H](NC(=O)CNC)C(=O)N[C@H]1CSSC(C)(C)[C@@H](C(=O)N[C@H](C(=O)N2CCC[C@H]2C(=O)N2CC[C@H](C(=O)O)C2)[C@@H](C)CC)NC(=O)[C@H]([C@@H](C)CC)NC(=O)[C@@H]2C[C@@H]3CCCC[C@@H]3N2C(=O)[C@@H]2CCCN2C(=O)[C@H](CC(C)C)NC(=O)[C@H](CO)NC(=O)[C@H](CCCNC(=N)N)NC(=O)[C@H](CO)NC1=O) [Example 456: ((N-Me)G)-IC+SRSLP-(Oic)-I-(Pen)+IP-((S)-Pyrrolidine-3-carboxylic acid)-OH]
99 | 2 |  |  | [Sar]ICSRSLP[Oic]I[Pen]IPN-OH (disulfide 3-11; N-terminus assumed; SMILES CC[C@H](C)[C@H](NC(=O)CNC)C(=O)N[C@H]1CSSC(C)(C)[C@@H](C(=O)N[C@H](C(=O)N2CCC[C@H]2C(=O)N[C@@H](CC(N)=O)C(=O)O)[C@@H](C)CC)NC(=O)[C@H]([C@@H](C)CC)NC(=O)[C@@H]2C[C@@H]3CCCC[C@@H]3N2C(=O)[C@@H]2CCCN2C(=O)[C@H](CC(C)C)NC(=O)[C@H](CO)NC(=O)[C@H](CCCNC(=N)N)NC(=O)[C@H](CO)NC1=O) [Example 454: ((N-Me)G)-IC+SRSLP-(Oic)-I-(Pen)+IPN-OH]
56 | 2.5 |  |  | [Sar]ICSRSLP[Oic]I[Pen]IP[X9]-OH (disulfide 3-11; N-terminus assumed; SMILES CC[C@H](C)[C@H](NC(=O)CNC)C(=O)N[C@H]1CSSC(C)(C)[C@@H](C(=O)N[C@H](C(=O)N2CCC[C@H]2C(=O)N2CCC[C@H]2CCC(=O)O)[C@@H](C)CC)NC(=O)[C@H]([C@@H](C)CC)NC(=O)[C@@H]2C[C@@H]3CCCC[C@@H]3N2C(=O)[C@@H]2CCCN2C(=O)[C@H](CC(C)C)NC(=O)[C@H](CO)NC(=O)[C@H](CCCNC(=N)N)NC(=O)[C@H](CO)NC1=O) [Example 453: ((N-Me)G)-IC+SRSLP-(Oic)-I-(Pen)+IP-((S)-3-(1-Pyrrolidine-2-yl)-propionic acid)-OH]
85 | 2.9 |  |  | [Sar]ICSRSLP[Oic]I[Pen]IP[β3hP]-OH (disulfide 3-11; N-terminus assumed; SMILES CC[C@H](C)[C@H](NC(=O)CNC)C(=O)N[C@H]1CSSC(C)(C)[C@@H](C(=O)N[C@H](C(=O)N2CCC[C@H]2C(=O)N2CCC[C@H]2CC(=O)O)[C@@H](C)CC)NC(=O)[C@H]([C@@H](C)CC)NC(=O)[C@@H]2C[C@@H]3CCCC[C@@H]3N2C(=O)[C@@H]2CCCN2C(=O)[C@H](CC(C)C)NC(=O)[C@H](CO)NC(=O)[C@H](CCCNC(=N)N)NC(=O)[C@H](CO)NC1=O) [Example 455: ((N-Me)G)-IC+SRSLP-(Oic)-I-(Pen)+IP-(beta-homo-P)-OH]
61 | 2.6 |  |  | [Sar]ICSRSLP[Oic]I[Pen]IP[X6]-OH (disulfide 3-11; N-terminus assumed; SMILES CC[C@H](C)[C@H](NC(=O)CNC)C(=O)N[C@H]1CSSC(C)(C)[C@@H](C(=O)N[C@H](C(=O)N2CCC[C@H]2C(=O)N2CCC[C@@H](CC(=O)O)C2)[C@@H](C)CC)NC(=O)[C@H]([C@@H](C)CC)NC(=O)[C@@H]2C[C@@H]3CCCC[C@@H]3N2C(=O)[C@@H]2CCCN2C(=O)[C@H](CC(C)C)NC(=O)[C@H](CO)NC(=O)[C@H](CCCNC(=N)N)NC(=O)[C@H](CO)NC1=O) [Example 451: ((N-Me)G)-IC+SRSLP-(Oic)-I-(Pen)+IP-((S)-(1-Piperidin-3-yl)-acetic acid)-OH]
